Measured values taken from patent US20230158141A1 (YAFEI SHANGHAI BIOLOG MEDICINE SCIENCE AND TECHNOLOGY, published 2023).
Where a chain is given by its changes, count along the chain named. Blank lines part the entries; values can stand above or below the binder they belong to.

Experiments:
IL-10R1-Fc = target: T1, IL-10R1-Fc (UniProt Q13651 22-235, limits assumed); assay: ELISA, IL-10R1-Fc coated
T1 sequence (looked up): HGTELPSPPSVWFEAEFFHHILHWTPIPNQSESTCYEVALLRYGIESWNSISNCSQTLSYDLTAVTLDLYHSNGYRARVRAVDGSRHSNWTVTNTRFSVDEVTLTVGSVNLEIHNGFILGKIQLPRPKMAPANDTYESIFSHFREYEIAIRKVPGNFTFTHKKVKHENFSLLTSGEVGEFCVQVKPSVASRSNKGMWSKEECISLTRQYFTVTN

IL-10R2-Fc/His = target: T2, IL-10R2-Fc/His (UniProt Q08334 20-220, limits assumed); assay: ELISA, IL-10R2-Fc/His coated
T2 sequence (looked up): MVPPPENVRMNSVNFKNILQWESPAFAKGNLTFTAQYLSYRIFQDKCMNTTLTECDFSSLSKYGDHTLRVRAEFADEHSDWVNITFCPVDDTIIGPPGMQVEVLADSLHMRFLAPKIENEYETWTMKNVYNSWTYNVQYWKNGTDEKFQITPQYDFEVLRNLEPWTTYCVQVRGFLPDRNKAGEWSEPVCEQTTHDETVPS

Binding recovery (>60%) (IL-10R1-Fc): 99.1%
B1: IL-10 Thr13Cys-R4-6 (ligand, human, UniProt P22301 19-178, looked up)
chain: SPGQGTQSENSCCHFPGNLPNMLRDLRDAFSRVKTFFQMKDQLDNLLLKESLLEDFKGYLGCQALSEMIQFYLEEVMPQAENQDPDIKAHVNSLGENLKTLRLRLRRCHRFLPCENKSKAVEQVKNAFNKLQEKGIYKAMSEFDIFINYIEAYMTMKIRN
modifications: R4-6 on Cys 13
notes: mature

Binding recovery (>60%) (IL-10R2-Fc/His): 90%
B2: IL-10 Phe15Cys-R4-8 (ligand, human, UniProt P22301 19-178, looked up)
chain: B1 chain with C13T, F15C
modifications: R4-8 on Cys 15
notes: mature

Decreased fold of binding to ligand after Conjugating with S48 (IL-10R1-Fc): 3 fold
B3: IL-10 Thr6Cys-S48 (ligand, human, UniProt P22301 19-178, looked up)
chain: B1 chain with T6C, C13T
modifications: S48 on Cys 6
notes: mature

Binding recovery (>60%) (IL-10R2-Fc/His): 78.7%
B4: IL-10 Ala89Cys-R4-1 (ligand, human, UniProt P22301 19-178, looked up)
chain: B1 chain with C13T, A89C
modifications: R4-1 on Cys 89
notes: mature

Decreased fold of binding to ligand after Conjugating with S48 (IL-10R2-Fc/His): 3 fold
B5: IL-10 Arg106Cys-S48 (ligand, human, UniProt P22301 19-178, looked up)
chain: B1 chain with C13T, R106C
modifications: S48 on Cys 106
notes: mature

Binding recovery (>60%) (IL-10R2-Fc/His): 117%
B6: IL-10 Lys99Cys-R4-7 (ligand, human, UniProt P22301 19-178, looked up)
chain: B1 chain with C13T, K99C
modifications: R4-7 on Cys 99
notes: mature

Binding recovery (>60%) (IL-10R2-Fc/His): 99%
B7: IL-10 Arg102Cys-R4-20 (ligand, human, UniProt P22301 19-178, looked up)
chain: B1 chain with C13T, R102C
modifications: R4-20 on Cys 102
notes: mature

Decreased fold of binding to ligand after Conjugating with S48 (IL-10R1-Fc): 7 fold
B8: IL-10 Thr13Cys-S48 (ligand, human, UniProt P22301 19-178, looked up)
chain: B1 chain
modifications: S48 on Cys 13
notes: mature

Binding recovery (>60%) (IL-10R2-Fc/His): 99.8%
B9: IL-10 Glu122Cys-R4-12 (ligand, human, UniProt P22301 19-178, looked up)
chain: B1 chain with C13T, E122C
modifications: R4-12 on Cys 122
notes: mature

Binding recovery (>60%) (IL-10R1-Fc): 115%
B10: IL-10 Tyr149Cys-R4-4 (ligand, human, UniProt P22301 19-178, looked up)
chain: B1 chain with C13T, Y149C
modifications: R4-4 on Cys 149
notes: mature

Decreased fold of binding to ligand after Conjugating with S48 (IL-10R2-Fc/His): 3 fold
B11: IL-10 Gln123Cys-S48 (ligand, human, UniProt P22301 19-178, looked up)
chain: B1 chain with C13T, Q123C
modifications: S48 on Cys 123
notes: mature

Binding recovery (>60%) (IL-10R2-Fc/His): 93.6%
B12: IL-10 Glu81Cys-R4-12 (ligand, human, UniProt P22301 19-178, looked up)
chain: B1 chain with C13T, E81C
modifications: R4-12 on Cys 81
notes: mature

Binding recovery (>60%) (IL-10R2-Fc/His): 99%
B13: IL-10 Asn126Cys-R4-18 (ligand, human, UniProt P22301 19-178, looked up)
chain: B1 chain with C13T, N126C
modifications: R4-18 on Cys 126
notes: mature

Decreased fold of binding to ligand after Conjugating with S48 (IL-10R2-Fc/His): 3 fold
B14: IL-10 Asn92Cys-S48 (ligand, human, UniProt P22301 19-178, looked up)
chain: B1 chain with C13T, N92C
modifications: S48 on Cys 92
notes: mature

Decreased fold of binding to ligand after Conjugating with S48 (IL-10R2-Fc/His): 3 fold
B15: IL-10 Ala29Cys-S48 (ligand, human, UniProt P22301 19-178, looked up)
chain: B1 chain with C13T, A29C
modifications: S48 on Cys 29
notes: mature

Decreased fold of binding to ligand after Conjugating with S48 (IL-10R2-Fc/His): 4 fold
B16: IL-10 Ile87Cys-S48 (ligand, human, UniProt P22301 19-178, looked up)
chain: B1 chain with C13T, I87C
modifications: S48 on Cys 87
notes: mature

Decreased fold of binding to ligand after Conjugating with S48 (IL-10R2-Fc/His): 3 fold
B17: IL-10 Glu81Cys-S48 (ligand, human, UniProt P22301 19-178, looked up)
chain: B1 chain with C13T, E81C
modifications: S48 on Cys 81
notes: mature

Decreased fold of binding to ligand after Conjugating with S48 (IL-10R2-Fc/His): 3 fold
B18: IL-10 Lys99Cys-S48 (ligand, human, UniProt P22301 19-178, looked up)
chain: B1 chain with C13T, K99C
modifications: S48 on Cys 99
notes: mature

Binding recovery (>60%) (IL-10R2-Fc/His): 89.4%
B19: IL-10 Leu103Cys-R4-6 (ligand, human, UniProt P22301 19-178, looked up)
chain: B1 chain with C13T, L103C
modifications: R4-6 on Cys 103
notes: mature

Decreased fold of binding to ligand after Conjugating with S48 (IL-10R1-Fc): 3 fold
B20: IL-10 Tyr72Cys-S48 (ligand, human, UniProt P22301 19-178, looked up)
chain: B1 chain with C13T, Y72C
modifications: S48 on Cys 72
notes: mature

Binding recovery (>60%) (IL-10R2-Fc/His): 99%
B21: IL-10 Lys88Cys-R4-7 (ligand, human, UniProt P22301 19-178, looked up)
chain: B1 chain with C13T, K88C
modifications: R4-7 on Cys 88
notes: mature

Binding recovery (>60%) (IL-10R2-Fc/His): 95.7%
B22: IL-10 Ile87Cys-R4-6 (ligand, human, UniProt P22301 19-178, looked up)
chain: B1 chain with C13T, I87C
modifications: R4-6 on Cys 87
notes: mature

Binding recovery (>60%) (IL-10R2-Fc/His): 91%
B23: IL-10 Leu101Cys-R4-6 (ligand, human, UniProt P22301 19-178, looked up)
chain: B1 chain with C13T, L101C
modifications: R4-6 on Cys 101
notes: mature

Binding recovery (>60%) (IL-10R2-Fc/His): 78%
B24: IL-10 Ala29Cys-R4-5 (ligand, human, UniProt P22301 19-178, looked up)
chain: B1 chain with C13T, A29C
modifications: R4-5 on Cys 29
notes: mature

Binding recovery (>60%) (IL-10R2-Fc/His): 99.6%
B25: IL-10 Arg106Cys-R4-7 (ligand, human, UniProt P22301 19-178, looked up)
chain: B1 chain with C13T, R106C
modifications: R4-7 on Cys 106
notes: mature

Decreased fold of binding to ligand after Conjugating with S48 (IL-10R2-Fc/His): 3 fold
B26: IL-10 Asn126Cys-S48 (ligand, human, UniProt P22301 19-178, looked up)
chain: B1 chain with C13T, N126C
modifications: S48 on Cys 126
notes: mature
